Results taken from patent US20250042968A1, “EPHRIN LIGAND MIMETIC PEPTIDES FOR THE TREATMENT OF NEURODEGENERATIVE DISEASES” (University of Miami, priority 2022, published 2025).

B1: efnB1: pre-clustered ephrin ligand on laminin-coated surface (protein, UniProt P98172 28-346, looked up)
Ephrin-B1: LAKNLEPVSWSSLNPKFLSGKGLVIYPKIGDKLDIICPRAEAGRPYEYYKLYLVRPEQAAACSTVLDPNVLVTCNRPEQEIRFTIKFQEFSPNYMGLEFKKHHDYYITSTSNGSLEGLENREGGVCRTRTMKIIMKVGQDPNAVTPEQLTTSRPSKEADNTVKMATQAPGSRGSLGDSDGKHETVNQEEKSGPGASGGSSGDPDGFFNSKVALFAAVGAGCVIFLLIIIFLTVLLLKLRKRHRKHTQQRAAALSLSTLASPKGGSGTAGTEPSDIIIPLRTTENNYCPHYEKVSGDYGHPVYIVQEMPPQSPANIYYKV
modifications: pre-clustered
notes: pre-clustered ephrin ligand on laminin-coated surface
B2: efnB3: recombinant Efn ligand containing a His-Tag (R&D Systems), pre-clustered with anti-His antibody (protein, UniProt Q15768 28-226, looked up)
extracellular domain: LSLEPVYWNSANKRFQAEGGYVLYPQIGDRLDLLCPRARPPGPHSSPNYEFYKLYLVGGAQGRRCEAPPAPNLLLTCDRPDLDLRFTIKFQEYSPNLWGHEFRSHHDYYIIATSDGTREGLESLQGGVCLTRGMKVLLRVGQSPRGGAVPRKPVSEMPMERDRGAAHSLEPGKENLPGDPTSNATSRGAEGPLPPPSMP
modifications: extracellular domain His tag, pre-clustered
notes: recombinant Efn ligand containing a His-Tag (R&D Systems), pre-clustered with anti-His antibody

Test system: human fetal brain-derived neural stem cells (hNSC)
Assay: hNSC growth on ephrin-ligand repulsive substrates
Type: cell-based
Settings: for substrate effect on neuronal cell growth: laminin-coated surfaces containing pre-clustered efn ligand
Procedure: Fetal brain-derived neural stem cells (hNSC): In order to evaluate the effect of xEFN peptides on human neuronal cells, StemPro hNSC were purchased from ThermoFisher Scientific (Cat. no. A15654) and cultured according to the manufacturer's recommended protocol. Briefly, cells were grown in non-adherent neurosphere suspension cultures in StemPro NSC serum-free media (NSC-SFM) (Cat. no. A10509-01) supplemented with 2 mM GlutaMAX-I supplement, 6 U/mL heparin, and 200 μM ascorbic acid (Sigma-Aldrich, Cat. no. A8960). Culture media was changed every 2 days and cells were passaged every 7 days as undifferentiated hNSC. To induce differentiation into neuronal cells, hNSC neurospheres were dissociated into single-cell suspensions using StemPro Accutase for 5 minutes at 37° C. followed by mechanical pipetting. hNSC were then plated onto Geltrex-coated culture vessels at a concentration of 2×10^4 cells/cm^2 in neuronal differentiation media consisting of NSC media without bFGF or EGF and supplemented with B-27 supplement (ThermoFisher Scientific) for 3 days prior to performing further in vitro assays.
Glial-bound efn ligands have been associated with mediating the major repulsive milieu for neuronal process in the CNS. […] Moreover, assays on the repulsive nature of efn ligand-presenting surfaces have been a mainstay in axonal guidance studies for many decade. The use of xEFN peptides to antagonize this repulsive signaling from efn ligand substrates was evaluated on human fetal brain-derived neural stem cells (hNSC).
Recombinant Efn ligands (A2, A4, and B3) containing a His-Tag were purchased from R&D Systems, and were pre-clustered using an anti-His antibody (Genetex) for 30 min. The pre-clustered Efn ligands, or anti-his antibody alone, (control) were then mixed with laminin from human placenta (Sigma-Aldrich) in suspension and used to coat the growth surface of a 24-well plate. […] The entire wells were then scanned using an EVOS FL Auto fluorescent microscope and the images were analyzed in the ImageJ software to calculate cell coverage area.

Molecule | substrate effect on neuronal cell growth | hNSC confluence on pre-clustered efn ligand substrate (no peptide, compared to the laminin-only control confluence)
B1 | highly repulsive substrates | –
B2 | highly repulsive substrates | 44.61+/−1.61%
